For one molecule, stoichiometry N results are on record in article PMC9525694.

The target of this assay is T1, Bak (human (endogenous in HeLa)), Q16611.
T1 chain: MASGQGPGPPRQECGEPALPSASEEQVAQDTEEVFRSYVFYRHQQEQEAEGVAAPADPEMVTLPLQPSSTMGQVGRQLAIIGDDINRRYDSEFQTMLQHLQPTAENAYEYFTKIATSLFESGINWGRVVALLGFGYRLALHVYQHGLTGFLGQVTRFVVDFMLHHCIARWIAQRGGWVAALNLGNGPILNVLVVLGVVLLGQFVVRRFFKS
The assay is described as follows: native gel or EMSA; BN-PAGE (6-16.5% gradient, 4 °C) of mitochondria from uninfected HeLa cells incubated with recombinant tBid for 30 min, lysed in 1% digitonin; Western blot for Bak. Particulars: remark: other sources report otherwise.

As usually defined, the stoichiometry N is the number of molecules, sites or subunits per partner or assembly.

B1: Bak, Q16611 1-211 (natural protein)
chain: MASGQGPGPPRQECGEPALPSASEEQVAQDTEEVFRSYVFYRHQQEQEAEGVAAPADPEMVTLPLQPSSTMGQVGRQLAIIGDDINRRYDSEFQTMLQHLQPTAENAYEYFTKIATSLFESGINWGRVVALLGFGYRLALHVYQHGLTGFLGQVTRFVVDFMLHHCIARWIAQRGGWVAALNLGNGPILNVLVVLGVVLLGQFVVRRFFKS
With B1, the stoichiometry N came out at 2.
